Source: patent US20090149389A1 (PURDUE RESEARCH FOUNDATION, published 2009)

What was measured:
Assay in all cases: cell-based or functional assay
IGF-IR (h) = IGF-IR (h) (human (h), UniProt P08069 959-1367, limits assumed)
PKB β (h) = PKB β (h) (human (h), UniProt P31751 1-481, limits assumed)
PKA (h) = PKA (h) (human (h), UniProt P17612 1-351)
KDR (tl) = KDR (tl) (UniProt P35968 790-1356, limits assumed)
PDGFRβ (h) = PDGFRβ (h) (human (h), UniProt P09619 558-1106, limits assumed)
GSK3β (h) = GSK3β (h) (human (h), UniProt P49841 1-420)
PKCδ (h) = PKCδ (h) (human (h), UniProt Q05655 1-676)
Sequence of PKCδ (h) (Q05655 whole entry, stated change not applied): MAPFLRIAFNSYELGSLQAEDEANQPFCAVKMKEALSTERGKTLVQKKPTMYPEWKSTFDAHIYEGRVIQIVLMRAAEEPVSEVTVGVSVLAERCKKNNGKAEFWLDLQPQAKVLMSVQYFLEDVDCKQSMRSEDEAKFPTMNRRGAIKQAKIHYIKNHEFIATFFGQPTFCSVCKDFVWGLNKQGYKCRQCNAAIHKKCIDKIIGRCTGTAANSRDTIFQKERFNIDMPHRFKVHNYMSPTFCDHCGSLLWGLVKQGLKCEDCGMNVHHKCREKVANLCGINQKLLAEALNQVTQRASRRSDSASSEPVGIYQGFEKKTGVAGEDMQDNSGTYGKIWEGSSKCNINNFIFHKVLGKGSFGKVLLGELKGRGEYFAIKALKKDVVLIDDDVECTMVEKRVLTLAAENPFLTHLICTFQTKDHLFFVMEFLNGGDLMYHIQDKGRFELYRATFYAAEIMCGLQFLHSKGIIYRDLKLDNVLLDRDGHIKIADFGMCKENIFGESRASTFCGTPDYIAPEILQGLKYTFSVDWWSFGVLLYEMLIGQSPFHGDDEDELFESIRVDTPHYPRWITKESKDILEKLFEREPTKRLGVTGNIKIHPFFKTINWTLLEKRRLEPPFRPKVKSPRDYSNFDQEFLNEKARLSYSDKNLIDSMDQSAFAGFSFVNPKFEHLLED

CDKI/cyclinB (h) = CDKI/cyclinB (h) (human (h), UniProt P06493 1-297)
Sequence of CDKI/cyclinB (h) (P06493 whole entry): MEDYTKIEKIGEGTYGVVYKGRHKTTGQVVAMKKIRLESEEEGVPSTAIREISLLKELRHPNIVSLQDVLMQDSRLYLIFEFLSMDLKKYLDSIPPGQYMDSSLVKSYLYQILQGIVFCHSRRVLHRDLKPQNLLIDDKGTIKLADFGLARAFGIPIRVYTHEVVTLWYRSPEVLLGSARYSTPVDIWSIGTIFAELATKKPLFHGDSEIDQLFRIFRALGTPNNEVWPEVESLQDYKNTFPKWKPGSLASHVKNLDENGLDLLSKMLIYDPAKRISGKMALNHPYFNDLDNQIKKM

EphA2 (h) = biological target: T1, EphA2 (h) (human (h), UniProt P29317 591-976, limits assumed)
T1 sequence (looked up): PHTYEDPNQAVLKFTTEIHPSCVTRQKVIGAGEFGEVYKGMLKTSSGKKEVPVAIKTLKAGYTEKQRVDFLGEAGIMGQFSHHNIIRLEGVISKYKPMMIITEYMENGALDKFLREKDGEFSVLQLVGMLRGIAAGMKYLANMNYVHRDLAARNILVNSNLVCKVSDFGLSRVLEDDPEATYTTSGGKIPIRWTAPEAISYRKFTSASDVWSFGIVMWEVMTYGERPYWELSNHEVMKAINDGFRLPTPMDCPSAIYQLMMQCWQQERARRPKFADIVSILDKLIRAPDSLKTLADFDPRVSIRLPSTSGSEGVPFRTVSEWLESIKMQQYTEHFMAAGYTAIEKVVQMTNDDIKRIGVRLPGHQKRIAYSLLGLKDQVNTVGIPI

Abl (h) = Abl (h) (human (h), UniProt P00519 27-1130, limits assumed)
Flt3 (h) = biological target: T2, Flt3 (h) (human (h), UniProt P36888 564-993, limits assumed)
T2 sequence (looked up): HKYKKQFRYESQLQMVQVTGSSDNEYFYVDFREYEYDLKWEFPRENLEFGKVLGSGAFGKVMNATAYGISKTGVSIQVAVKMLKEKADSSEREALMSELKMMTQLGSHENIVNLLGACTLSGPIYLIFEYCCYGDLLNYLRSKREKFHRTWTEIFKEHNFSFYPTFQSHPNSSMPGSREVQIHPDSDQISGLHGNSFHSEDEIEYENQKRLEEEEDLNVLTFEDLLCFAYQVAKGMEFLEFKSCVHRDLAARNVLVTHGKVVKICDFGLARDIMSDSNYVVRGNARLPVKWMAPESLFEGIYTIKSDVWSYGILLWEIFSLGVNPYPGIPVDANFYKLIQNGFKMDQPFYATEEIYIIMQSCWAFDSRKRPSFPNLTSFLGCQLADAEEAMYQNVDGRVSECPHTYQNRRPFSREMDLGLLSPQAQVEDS

SAPK2 a (h) = SAPK2 a (h) (human (h), UniProt Q16539 1-360)
Sequence of SAPK2 a (h) (Q16539 whole entry): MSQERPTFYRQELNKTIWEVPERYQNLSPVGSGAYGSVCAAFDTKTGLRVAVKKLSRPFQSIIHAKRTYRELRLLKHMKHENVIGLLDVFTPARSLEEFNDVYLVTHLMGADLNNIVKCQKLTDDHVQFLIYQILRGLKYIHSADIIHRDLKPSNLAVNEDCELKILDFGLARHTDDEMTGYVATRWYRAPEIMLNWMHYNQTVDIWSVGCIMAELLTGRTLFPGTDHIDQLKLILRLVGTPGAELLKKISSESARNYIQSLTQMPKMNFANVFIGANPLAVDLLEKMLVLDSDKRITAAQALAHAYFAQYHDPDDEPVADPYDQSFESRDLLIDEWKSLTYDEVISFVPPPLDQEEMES

Lck (h) = Lck (h) (human (h), UniProt P06239 1-509)
MSK2 (h) = MSK2 (h) (human (h), UniProt O75676 1-772, limits assumed)
Sequence of MSK2 (h) (O75676 whole entry): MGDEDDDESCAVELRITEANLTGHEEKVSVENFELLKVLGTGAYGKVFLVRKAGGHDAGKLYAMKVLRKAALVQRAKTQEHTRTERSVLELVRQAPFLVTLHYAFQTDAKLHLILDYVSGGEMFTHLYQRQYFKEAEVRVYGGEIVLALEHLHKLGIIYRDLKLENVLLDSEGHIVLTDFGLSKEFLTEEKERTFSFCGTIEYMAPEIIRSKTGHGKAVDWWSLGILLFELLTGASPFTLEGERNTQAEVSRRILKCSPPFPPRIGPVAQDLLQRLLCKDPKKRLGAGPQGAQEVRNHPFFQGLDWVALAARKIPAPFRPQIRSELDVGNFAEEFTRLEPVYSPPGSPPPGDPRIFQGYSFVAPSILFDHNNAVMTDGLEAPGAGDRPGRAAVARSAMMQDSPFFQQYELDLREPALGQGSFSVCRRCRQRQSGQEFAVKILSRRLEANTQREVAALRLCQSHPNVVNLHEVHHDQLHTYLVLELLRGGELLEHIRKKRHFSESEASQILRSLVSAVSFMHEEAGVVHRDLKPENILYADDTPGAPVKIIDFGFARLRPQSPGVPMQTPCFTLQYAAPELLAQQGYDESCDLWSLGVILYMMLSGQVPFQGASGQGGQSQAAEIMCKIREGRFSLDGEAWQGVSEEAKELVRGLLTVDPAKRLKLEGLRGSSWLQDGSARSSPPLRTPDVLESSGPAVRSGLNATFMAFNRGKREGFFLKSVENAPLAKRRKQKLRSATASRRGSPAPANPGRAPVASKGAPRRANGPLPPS

cKit (h) = cKit (h) (human (h), UniProt P10721 544-976, limits assumed)
Sequence of cKit (h) (P10721 544-976 limits assumed): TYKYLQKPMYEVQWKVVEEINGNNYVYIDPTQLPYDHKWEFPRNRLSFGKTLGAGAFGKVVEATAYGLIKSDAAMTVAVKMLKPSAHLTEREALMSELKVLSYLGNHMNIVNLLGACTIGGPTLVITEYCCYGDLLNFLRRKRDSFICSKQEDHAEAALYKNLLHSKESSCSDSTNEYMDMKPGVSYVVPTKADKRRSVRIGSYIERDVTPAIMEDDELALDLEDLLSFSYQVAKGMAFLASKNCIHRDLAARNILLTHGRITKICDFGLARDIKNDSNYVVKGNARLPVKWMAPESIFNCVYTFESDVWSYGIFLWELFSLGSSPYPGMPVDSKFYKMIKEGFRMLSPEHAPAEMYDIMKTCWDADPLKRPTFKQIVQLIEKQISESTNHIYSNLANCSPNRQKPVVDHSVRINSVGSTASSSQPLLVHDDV

PRAK = biological target: T3, PRAK (UniProt Q8IW41 1-473, limits assumed)
T3 sequence (looked up): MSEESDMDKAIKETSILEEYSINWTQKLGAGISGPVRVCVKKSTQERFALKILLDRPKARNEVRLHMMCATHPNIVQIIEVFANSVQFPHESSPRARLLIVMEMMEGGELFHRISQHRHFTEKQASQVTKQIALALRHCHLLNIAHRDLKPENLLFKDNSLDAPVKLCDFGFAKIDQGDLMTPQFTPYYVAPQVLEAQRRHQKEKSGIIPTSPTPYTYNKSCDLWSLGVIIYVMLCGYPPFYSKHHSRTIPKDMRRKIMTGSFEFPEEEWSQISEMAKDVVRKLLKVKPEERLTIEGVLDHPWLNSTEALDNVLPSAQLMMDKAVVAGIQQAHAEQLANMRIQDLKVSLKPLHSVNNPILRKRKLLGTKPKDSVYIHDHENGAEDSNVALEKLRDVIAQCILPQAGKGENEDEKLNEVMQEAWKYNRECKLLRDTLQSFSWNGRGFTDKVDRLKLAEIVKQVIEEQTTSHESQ

MAPKAP-K2 (h) = MAPKAP-K2 (h) (human (h), UniProt P49137 46-400, limits assumed)
Sequence of MAPKAP-K2 (h) (P49137 46-400 limits assumed): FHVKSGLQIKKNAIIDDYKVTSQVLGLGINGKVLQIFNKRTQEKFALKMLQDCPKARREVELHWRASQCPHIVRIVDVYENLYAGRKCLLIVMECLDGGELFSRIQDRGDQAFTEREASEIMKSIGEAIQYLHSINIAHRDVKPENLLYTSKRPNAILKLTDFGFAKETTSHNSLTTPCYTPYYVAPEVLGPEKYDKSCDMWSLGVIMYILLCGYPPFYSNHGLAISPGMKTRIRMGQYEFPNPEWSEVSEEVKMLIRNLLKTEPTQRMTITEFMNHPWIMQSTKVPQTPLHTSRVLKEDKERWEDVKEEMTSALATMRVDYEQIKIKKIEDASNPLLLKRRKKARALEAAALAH

MKK4 (m) = biological target: T4, MKK4 (m) (mouse (m), UniProt P47809 35-397, limits assumed)
T4 sequence (looked up): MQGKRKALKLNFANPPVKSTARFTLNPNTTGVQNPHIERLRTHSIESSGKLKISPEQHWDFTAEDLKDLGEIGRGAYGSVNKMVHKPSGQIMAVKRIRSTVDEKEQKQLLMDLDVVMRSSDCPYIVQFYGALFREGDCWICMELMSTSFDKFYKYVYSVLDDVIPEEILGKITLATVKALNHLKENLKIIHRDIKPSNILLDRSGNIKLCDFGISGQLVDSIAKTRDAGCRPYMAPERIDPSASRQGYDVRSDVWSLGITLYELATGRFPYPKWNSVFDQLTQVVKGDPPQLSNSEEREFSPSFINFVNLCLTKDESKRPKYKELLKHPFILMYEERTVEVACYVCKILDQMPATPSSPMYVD

ASK1 (h) = ASK1 (h) (human (h), UniProt Q99683 649-946, limits assumed)
Sequence of ASK1 (h) (Q99683 649-946 limits assumed): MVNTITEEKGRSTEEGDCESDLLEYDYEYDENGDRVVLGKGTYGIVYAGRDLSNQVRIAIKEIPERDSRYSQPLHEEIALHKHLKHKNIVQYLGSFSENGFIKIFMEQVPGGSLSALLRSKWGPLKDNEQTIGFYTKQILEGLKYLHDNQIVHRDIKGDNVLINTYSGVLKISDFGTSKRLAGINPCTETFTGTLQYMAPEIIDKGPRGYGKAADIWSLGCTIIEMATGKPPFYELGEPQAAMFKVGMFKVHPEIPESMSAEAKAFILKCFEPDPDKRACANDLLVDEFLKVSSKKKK

Rsk2 (h) = Rsk2 (h) (human (h), UniProt P51812 1-740)
Sequence of Rsk2 (h) (P51812 whole entry): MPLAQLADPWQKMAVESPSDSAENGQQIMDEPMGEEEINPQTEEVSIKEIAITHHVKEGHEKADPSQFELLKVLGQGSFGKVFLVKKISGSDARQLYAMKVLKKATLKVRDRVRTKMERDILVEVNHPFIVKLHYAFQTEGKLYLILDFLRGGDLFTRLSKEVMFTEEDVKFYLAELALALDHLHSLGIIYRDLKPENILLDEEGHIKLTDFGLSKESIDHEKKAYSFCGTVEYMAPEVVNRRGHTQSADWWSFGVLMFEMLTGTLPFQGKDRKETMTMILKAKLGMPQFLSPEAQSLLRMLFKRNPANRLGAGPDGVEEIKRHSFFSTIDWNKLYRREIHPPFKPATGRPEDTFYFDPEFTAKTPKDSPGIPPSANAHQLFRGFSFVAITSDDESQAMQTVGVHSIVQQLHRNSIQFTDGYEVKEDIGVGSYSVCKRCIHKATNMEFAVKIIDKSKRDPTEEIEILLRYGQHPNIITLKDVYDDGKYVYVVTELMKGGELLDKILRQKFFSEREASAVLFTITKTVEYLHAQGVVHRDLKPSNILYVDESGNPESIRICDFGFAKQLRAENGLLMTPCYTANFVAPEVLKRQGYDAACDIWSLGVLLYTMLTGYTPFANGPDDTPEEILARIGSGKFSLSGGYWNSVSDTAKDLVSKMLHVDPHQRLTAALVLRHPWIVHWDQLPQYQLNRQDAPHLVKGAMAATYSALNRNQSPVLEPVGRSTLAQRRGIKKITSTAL

Sequence of IGF-IR (h) (P08069 959-1367 limits assumed): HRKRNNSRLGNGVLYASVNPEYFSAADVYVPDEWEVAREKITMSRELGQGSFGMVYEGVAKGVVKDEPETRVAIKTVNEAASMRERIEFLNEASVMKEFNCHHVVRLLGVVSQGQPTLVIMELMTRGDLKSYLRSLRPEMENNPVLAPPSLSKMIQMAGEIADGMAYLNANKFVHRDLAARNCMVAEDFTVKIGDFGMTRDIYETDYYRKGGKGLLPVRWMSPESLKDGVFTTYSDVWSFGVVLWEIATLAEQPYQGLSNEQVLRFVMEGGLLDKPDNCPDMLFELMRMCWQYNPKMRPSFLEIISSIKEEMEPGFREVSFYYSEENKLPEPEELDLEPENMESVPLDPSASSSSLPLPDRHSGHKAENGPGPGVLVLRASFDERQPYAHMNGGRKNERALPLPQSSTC
Sequence of KDR (tl) (P35968 790-1356 limits assumed): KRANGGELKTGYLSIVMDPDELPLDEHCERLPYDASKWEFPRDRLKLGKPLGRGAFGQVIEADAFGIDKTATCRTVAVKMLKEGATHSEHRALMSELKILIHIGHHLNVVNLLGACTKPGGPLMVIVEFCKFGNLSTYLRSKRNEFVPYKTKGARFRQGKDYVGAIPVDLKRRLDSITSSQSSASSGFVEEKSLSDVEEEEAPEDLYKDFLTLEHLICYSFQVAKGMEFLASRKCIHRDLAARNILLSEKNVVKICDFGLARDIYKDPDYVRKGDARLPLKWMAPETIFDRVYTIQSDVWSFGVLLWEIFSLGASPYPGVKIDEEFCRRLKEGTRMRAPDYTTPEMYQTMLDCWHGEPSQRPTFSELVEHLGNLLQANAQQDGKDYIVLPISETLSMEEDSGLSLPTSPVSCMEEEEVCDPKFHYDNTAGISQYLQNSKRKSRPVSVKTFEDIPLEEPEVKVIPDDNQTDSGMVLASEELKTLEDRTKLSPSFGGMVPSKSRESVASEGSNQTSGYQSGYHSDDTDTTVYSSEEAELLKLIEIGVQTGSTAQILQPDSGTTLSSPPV

KAFAKLAARLYRKALARQLGVAA
Profile-1 @ = 100 µm (kinase profiler assay) (IGF-IR (h)): 76 | Profile-1 @ = 100 µm (kinase profiler assay) (PKB β (h)): 28 | Profile-1 @ = 100 µm (kinase profiler assay) (PKA (h)): 103 | Profile-1 @ = 100 µm (kinase profiler assay) (KDR (tl)): 56 | Profile-1 @ = 100 µm (kinase profiler assay) (PDGFRβ (h)): 66 | Profile-1 @ = 100 µm (kinase profiler assay) (GSK3β (h)): 184 | Profile-1 @ = 100 µm (kinase profiler assay) (PKCδ (h)): 24 | Profile-1 @ = 100 µm (kinase profiler assay) (CDKI/cyclinB (h)): 55 | Profile-1 @ = 100 µm (kinase profiler assay) (EphA2 (h)): 22 | Profile-1 @ = 100 µm (kinase profiler assay) (Abl (h)): 55 | Profile-1 @ = 100 µm (kinase profiler assay) (Flt3 (h)): 20 | Profile-1 @ = 100 µm (kinase profiler assay) (SAPK2 a (h)): 59 | Profile-1 @ = 100 µm (kinase profiler assay) (Lck (h)): 847 | Profile-1 @ = 100 µm (kinase profiler assay) (MSK2 (h)): 30 | Profile-1 @ = 100 µm (kinase profiler assay) (cKit (h)): 31 | Profile-1 @ = 100 µm (kinase profiler assay) (PRAK): 148 | Profile-1 @ = 100 µm (kinase profiler assay) (MAPKAP-K2 (h)): 8 | Profile-1 @ = 100 µm (kinase profiler assay) (MKK4 (m)): 114 | Profile-1 @ = 100 µm (kinase profiler assay) (ASK1 (h)): 48 | Profile-1 @ = 100 µm (kinase profiler assay) (Rsk2 (h)): 6
